Experimental data as given in patent publication US20230192796A1 (published 2023).

Target: T1, Human IL-10Rβ on cells (Daudi, Jurkat, YT-1, THP-1 cell lines; primary human PBMC populations) (human, UniProt Q08334 20-325)
T1 sequence (looked up): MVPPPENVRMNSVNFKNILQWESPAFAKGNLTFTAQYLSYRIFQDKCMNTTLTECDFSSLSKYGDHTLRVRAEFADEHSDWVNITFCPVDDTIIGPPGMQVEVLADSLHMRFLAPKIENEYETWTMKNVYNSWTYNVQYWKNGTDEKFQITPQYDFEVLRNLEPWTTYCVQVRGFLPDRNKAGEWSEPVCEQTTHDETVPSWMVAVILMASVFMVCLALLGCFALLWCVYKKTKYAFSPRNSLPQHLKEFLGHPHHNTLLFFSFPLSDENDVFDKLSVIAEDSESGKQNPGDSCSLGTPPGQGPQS
Experiment: cell-based or functional assay

B1: Affinity matured IL-10 clone 5.1 (Super-10), soluble (ligand)
chain: SPGQGTQSENSCTHFPGYLPNMLRDLRDAFSRVKTFFQMKDQLDNLLLKESLLEDFKGYLGCQALSEMIQFYLEEVMPQAENQDPDIKAHVQSLGENLKDLRLWLRRCHRFLPCENKSKAVEQVKNAFNKLQEKGIYKAMSEFDIFINYIEAYMTMKIRNHHHHHH
ratio of super-10 to 10-DE STAT3 Emax in Daudi cells: > 20 ratio (super-10:10-DE) | ratio of super-10 to 10-DE STAT3 Emax in THP-1 cells: ~1 ratio (super-10:10-DE)
